Results taken from patent US20110263454A1, “Methods of Identifying Functional Characteristics of Promoters, Transcription Modifying Proteins and Transcription Modulating Agents” (Salk Institute for Biological Studies, priority 2008, published 2011).

B1: RARg: Retinoic acid receptor γ (NR1B3), nuclear hormone receptor cDNA driver (protein, UniProt P13631 1-454, looked up)
Retinoic acid receptor gamma: MATNKERLFAAGALGPGSGYPGAGFPFAFPGALRGSPPFEMLSPSFRGLGQPDLPKEMASLSVETQSTSSEEMVPSSPSPPPPPRVYKPCFVCNDKSSGYHYGVSSCEGCKGFFRRSIQKNMVYTCHRDKNCIINKVTRNRCQYCRLQKCFEVGMSKEAVRNDRNKKKKEVKEEGSPDSYELSPQLEELITKVSKAHQETFPSLCQLGKYTTNSSADHRVQLDLGLWDKFSELATKCIIKIVEFAKRLPGFTGLSIADQITLLKAACLDILMLRICTRYTPEQDTMTFSDGLTLNRTQMHNAGFGPLTDLVFAFAGQLLPLEMDDTETGLLSAICLICGDRMDLEEPEKVDKLQEPLLEALRLYARRRRPSQPYMFPRMLMKITDLRGISTKGAERAITLKMEIPGPMPPLIREMLENPEMFEDDSSQPGPHPNASSEDEVPGGQGKGGLKSPA
B2: RVRa: Rev-Erb α (NR1D1), cDNA driver (protein, UniProt P20393 1-614, looked up)
Nuclear receptor subfamily 1 …: MTTLDSNNNTGGVITYIGSSGSSPSRTSPESLYSDNSNGSFQSLTQGCPTYFPPSPTGSLTQDPARSFGSIPPSLSDDGSPSSSSSSSSSSSSFYNGSPPGSLQVAMEDSSRVSPSKSTSNITKLNGMVLLCKVCGDVASGFHYGVHACEGCKGFFRRSIQQNIQYKRCLKNENCSIVRINRNRCQQCRFKKCLSVGMSRDAVRFGRIPKREKQRMLAEMQSAMNLANNQLSSQCPLETSPTQHPTPGPMGPSPPPAPVPSPLVGFSQFPQQLTPPRSPSPEPTVEDVISQVARAHREIFTYAHDKLGSSPGNFNANHASGSPPATTPHRWENQGCPPAPNDNNTLAAQRHNEALNGLRQAPSSYPPTWPPGPAHHSCHQSNSNGHRLCPTHVYAAPEGKAPANSPRQGNSKNVLLACPMNMYPHGRSGRTVQEIWEDFSMSFTPAVREVVEFAKHIPGFRDLSQHDQVTLLKAGTFEVLMVRFASLFNVKDQTVMFLSRTTYSLQELGAMGMGDLLSAMFDFSEKLNSLALTEEELGLFTAVVLVSADRSGMENSASVEQLQETLLRALRALVLKNRPLETSRFTKLLLKLPDLRTLNNMHSEKLLSFRVDAQ
B3: RARa: Retinoic acid receptor α (NR1B1), nuclear hormone receptor cDNA driver (protein, UniProt P10276 1-462, looked up)
Retinoic acid receptor alpha: MASNSSSCPTPGGGHLNGYPVPPYAFFFPPMLGGLSPPGALTTLQHQLPVSGYSTPSPATIETQSSSSEEIVPSPPSPPPLPRIYKPCFVCQDKSSGYHYGVSACEGCKGFFRRSIQKNMVYTCHRDKNCIINKVTRNRCQYCRLQKCFEVGMSKESVRNDRNKKKKEVPKPECSESYTLTPEVGELIEKVRKAHQETFPALCQLGKYTTNNSSEQRVSLDIDLWDKFSELSTKCIIKTVEFAKQLPGFTTLTIADQITLLKAACLDILILRICTRYTPEQDTMTFSDGLTLNRTQMHNAGFGPLTDLVFAFANQLLPLEMDDAETGLLSAICLICGDRQDLEQPDRVDMLQEPLLEALKVYVRKRRPSRPHMFPKMLMKITDLRSISAKGAERVITLKMEIPGSMPPLIQEMLENSEGLDTLSGQPGGGGRDGGGLAPPPGSCSPSLSPSSNRSSPATHSP
B4: RARb: Retinoic acid receptor β (NR1B2), nuclear hormone receptor cDNA driver (protein, UniProt P10826 1-455, looked up)
Retinoic acid receptor beta: MTTSGHACPVPAVNGHMTHYPATPYPLLFPPVIGGLSLPPLHGLHGHPPPSGCSTPSPATIETQSTSSEELVPSPPSPLPPPRVYKPCFVCQDKSSGYHYGVSACEGCKGFFRRSIQKNMIYTCHRDKNCVINKVTRNRCQYCRLQKCFEVGMSKESVRNDRNKKKKETSKQECTESYEMTAELDDLTEKIRKAHQETFPSLCQLGKYTTNSSADHRVRLDLGLWDKFSELATKCIIKIVEFAKRLPGFTGLTIADQITLLKAACLDILILRICTRYTPEQDTMTFSDGLTLNRTQMHNAGFGPLTDLVFTFANQLLPLEMDDTETGLLSAICLICGDRQDLEEPTKVDKLQEPLLEALKIYIRKRRPSKPHMFPKILMKITDLRSISAKGAERVITLKMEIPGSMPPLIQEMLENSEGHEPLTPSSSGNTAEHSPSISPSSVENSGVSQSPLVQ
B5: RVRb: Rev-Erb β (NR1D2, alternative name RVR), cDNA driver (protein, UniProt Q14995 1-579, looked up)
Nuclear receptor subfamily 1 …: MEVNAGGVIAYISSSSSASSPASCHSEGSENSFQSSSSSVPSSPNSSNSDTNGNPKNGDLANIEGILKNDRIDCSMKTSKSSAPGMTKSHSGVTKFSGMVLLCKVCGDVASGFHYGVHACEGCKGFFRRSIQQNIQYKKCLKNENCSIMRMNRNRCQQCRFKKCLSVGMSRDAVRFGRIPKREKQRMLIEMQSAMKTMMNSQFSGHLQNDTLVEHHEQTALPAQEQLRPKPQLEQENIKSSSPPSSDFAKEEVIGMVTRAHKDTFMYNQEQQENSAESMQPQRGERIPKNMEQYNLNHDHCGNGLSSHFPCSESQQHLNGQFKGRNIMHYPNGHAICIANGHCMNFSNAYTQRVCDRVPIDGFSQNENKNSYLCNTGGRMHLVCPMSKSPYVDPHKSGHEIWEEFSMSFTPAVKEVVEFAKRIPGFRDLSQHDQVNLLKAGTFEVLMVRFASLFDAKERTVTFLSGKKYSVDDLHSMGAGDLLNSMFEFSEKLNALQLSDEEMSLFTAVVLVSADRSGIENVNSVEALQETLIRALRTLIMKNHPNEASIFTKLLLKLPDLRSLNNMHSEELLAFKVHP

Columns and labels:
hIRF7 promoter = test: NHR-promoter luciferase screen, hIRF7 promoter; assay type: cell-based, human; conditions: for Normalized Luc. act., normalized to control / Luc. act., normalized to lacZ: IRF7 promoter reporter; for Normalized Luc. act., normalized to control: HR without or with its ligand, relative to control; for Luc. act., normalized to lacZ: hormone receptor (HR) without or with its ligand; for hIRF7 promoter reporter activity: transcription factor +/- ligand, control = 1.00
Protocol: (§1) The use, feasibility, and reproducibility of the functional NHR-promoter screen in a 48-well format have been tested validated. Briefly, there were co-expressed 50 ng of each NHR/NHR homodimer or NHR/RXR heterodimer with 100 ng promoter/luciferase construct and 50 ng of LacZ (as a control for transfection efficiency) in CV-1 cells using Fugene HD (Roche) as a transfection reagent (alternatively or additionally, a CMV-YFP construct can be used as a transfection control). Each of the nuclear hormone receptors that were used in these experiments was cloned into a pcDNA3.1 vector and comprised a C-terminally linked V5H6 tag. Twenty-four hours after transfection, appropriate ligands were added, where applicable, (see Table 5 for various ligands and concentrations and after 48 hrs, samples were assayed for luciferase and LacZ activity. To measure for luciferase activity 15 ul of sample was added to 30 ul of luciferase buffer (20 mM tricine, 1.07 mM MgCarbonate, 2.67 mM MgSulfate, 0.1 mM Naz-EDTA, 5 mM DTT, 5 mM ATP, 0.15 mg/ml CoA, 0.5 mM Luciferin), mixed briefly, and run in a Perkin Elmer Victor 5 luminometer. Thus, the functional NHR-promoter screen was used to observe the transcriptional activity of 29 promoters from various physiological pathways including inflammation, lipid and sugar metabolism, cholesterol transport, xenobiotic metabolism, and circadian rhythm.
(§2) The promoters that facilitate transcription of the indicated gene products that were tested using the protocols described herein are listed in the first row of the table. The nuclear hormone receptors and, where applicable, ligands that were assayed for their transcriptional effects on the promoters are listed in the first column of the table. The data represent the luciferase activity of each sample normalized to both the lacZ activity of that sample and to a control, e.g., no NHR or ligand, as customary in the art. As described previously, these normalizations allow the transcriptional activity of each reporter cell to be compared to other samples.
(§3) Tables 7-40 show the transcriptional effects of the hormone receptors, and, where applicable, ligands (orphan receptors are screened without ligand), on each individual promoter. […] The control data of each table are shown in their last rows.

mADRP promoter = test: NHR-promoter luciferase screen, mADRP promoter; assay type: cell-based, mouse; conditions: for Luc. act., normalized to lacZ / Normalized Luc. act., normalized to control: ADRP promoter, HR/ligand component; for mADRP promoter reporter activity: transcription factor +/- ligand, control = 1.00
Protocol: as §1, §2, §3

SREBP1c promoter = test: NHR-promoter luciferase screen, SREBP1c promoter; assay type: cell-based, mouse; conditions: for Luc. act., normalized to lacZ / Normalized Luc. act., normalized to control: SREBP1c promoter, HR component without or with ligand; for mSREBP1-c promoter reporter activity: transcription factor +/- ligand, control = 1.00
Protocol: as §1, §2, §3

hIFNg promoter = test: NHR-promoter luciferase screen, hIFNg promoter; assay type: cell-based, human; conditions: for Luc. act., normalized to lacZ / Normalized Luc. act., normalized to control: IFNg promoter, HR component without or with ligand; for hIFNg promoter reporter activity: transcription factor +/- ligand, control = 1.00
Protocol: as §1, §2, §3

mDio2 promoter = test: NHR-promoter luciferase screen, mDio2 promoter; assay type: cell-based, mouse; conditions: for Luc. act., normalized to lacZ / Normalized Luc. act., normalized to control: Dio2, HR component without or with its ligand; for mDio2 promoter reporter activity: transcription factor +/- ligand, control = 1.00
Protocol: as §1, §2, §3

hPPARg2 promoter = test: NHR-promoter luciferase screen, hPPARg2 promoter; assay type: cell-based, human; conditions: for Luc. act., normalized to lacZ / Normalized Luc. act., normalized to control: PPARG2 promoter, hormone receptor with or without its ligand; for Normalized Luc. act., normalized to control: relative to control; for Results of assays of transcription factor (+/- ligand) with hPPARg2: Table 6d, luciferase activity relative to control (control = 1.00)
Protocol: as §1, §2, §3

| Molecule | Normalized Luc. act., normalized to control (hIRF7 promoter) | Luc. act., normalized to lacZ (hIRF7 promoter) | hIRF7 promoter reporter activity (hIRF7 promoter) | Luc. act., normalized to lacZ (mADRP promoter) | Normalized Luc. act., normalized to control (mADRP promoter) | mADRP promoter reporter activity (mADRP promoter) | Luc. act., normalized to lacZ (SREBP1c promoter) | Normalized Luc. act., normalized to control (SREBP1c promoter) | mSREBP1-c promoter reporter activity (SREBP1c promoter) | Luc. act., normalized to lacZ (hIFNg promoter) | Normalized Luc. act., normalized to control (hIFNg promoter) | hIFNg promoter reporter activity (hIFNg promoter) | Luc. act., normalized to lacZ (mDio2 promoter) | Normalized Luc. act., normalized to control (mDio2 promoter) | mDio2 promoter reporter activity (mDio2 promoter) | Luc. act., normalized to lacZ (hPPARg2 promoter) | Normalized Luc. act., normalized to control (hPPARg2 promoter) | Results of assays of transcription factor (+/- ligand) with hPPARg2 (hPPARg2 promoter) |
| --- | --- | --- | --- | --- | --- | --- | --- | --- | --- | --- | --- | --- | --- | --- | --- | --- | --- | --- |
| B1 | 1.8 | 47.5 | 1.80 | 765.4 | 1.5 | 1.54 | 1052.4 | 3.3 | 3.27 | 22.8 | 1.4 | 1.43 | 35.2 | 2.2 | 2.24 | 3.0 | 1.5 | 1.51 |
| B2 | 1.2 | 32.6 | 1.24 | 522.2 | 1.0 | 1.05 | 574.4 | 1.8 | 1.78 | 17.9 | 1.1 | 1.13 | 21.5 | 1.4 | 1.37 | 1.5 | 0.8 | 0.76 |
| B3 | 1.5 | 40.6 | 1.54 | 628.8 | 1.3 | 1.26 | 854.2 | 2.7 | 2.65 | 22.0 | 1.4 | 1.39 | 40.3 | 2.6 | 2.56 | 3.5 | 1.7 | 1.73 |
| B4 | 1.8 | 47.2 | 1.79 | 799.4 | 1.6 | 1.61 | 1056.4 | 3.3 | 3.28 | 24.4 | 1.5 | 1.53 | 32.7 | 2.1 | 2.08 | 3.4 | 1.7 | 1.72 |
| B5 | 1.9 | 50.4 | 1.91 | 353.2 | 0.7 | 0.71 | 721.7 | 2.2 | 2.24 | 19.5 | 1.2 | 1.22 | 19.7 | 1.3 | 1.26 | 1.0 | 0.5 | 0.48 |
